{
  "source": "the nanobody polyreactivity screen of Harvey et al. (2022)",
  "data": [
    {"assay": "yeast display, Sf9 membrane polyspecificity reagent, FACS + sequencing; frameworks hold sequencing errors", "summary_of_the_method": "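After 36–48 hours of galactose induction, yeast (Saccharomyces cerevisiae BJ5465) displaying a synthetic nanobody library were stained at 4 °C for 1 hour with 10% biotinylated, detergent-solubilized Sf9 membrane reagent. Streptavidin microbeads enriched the stained cells before FACS sorting into low and high (top ~1%) gates on anti-HA and streptavidin fluorescence. Each clone's polyreactivity label reflects its gate of origin.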", "values": [
      {"sequence": "QVQLEESGGGIVQAGGSLRLSCAASGRTFGANAMGWYRQAPGKERELVAAISSSDDSTYYADSVKGRFTISRDNAKNTVYLQMNSLKPEDTAVYYCAAEDVYPQLDYWGQGTQVTVSS", "polyreactivity (PSR sort gate)": "low polyreactivity"},
      {"sequence": "QVQLEESGGGLDQAGGILRLSFAASGSTIGGYAMGWYSQATGNERELVAAITRSGGRTYYADSVKGRFTISRDNGKNTVYLQMNSLKPEDTAVYYCATLVTNGRYDSWGQGTQVTVSS", "polyreactivity (PSR sort gate)": "high polyreactivity"},
      {"sequence": "QVQLEESGGGLDQAGGSLRLSCAASARTFDGYAMGWYRQAPGKERELVAAISSGDSTYYADSVKGRFTISRDKAKNTVYLQMNSLKPEDTAVYYCAASFYYSSYGYWGQGTQVTVSS", "polyreactivity (PSR sort gate)": "low polyreactivity"},
      {"sequence": "QVQLEESGGGLDQAGGSLRLTCAASGSTFLFYAMGWYRQAPGKESELVAAIRWSGGSTYADSVKGRFTISRDNAKYTVYLPMNSLKPEDTAVYYCATTYRPTFRRHYKYWGQGTQVTVSS", "polyreactivity (PSR sort gate)": "low polyreactivity"},
      {"sequence": "QVQLEESGGGLFQAGGSLRLSCAASGSTFYAYAMGWYRQAPGKERELVAAISSDGTNYADSVKGRFTISRDNAKNTVYLQMNSLKPEDTAVYYCAADMLLYSSQDNDYWGQGTLVTVSS", "polyreactivity (PSR sort gate)": "low polyreactivity"},
      {"sequence": "QVQLEESGGGLFQAGGSLRLSCAASVSSYRSYARGWYRTATGKERELVAAISVSGGSTYYADSVKGRFTISRDNAKNTVFLQMNSLKPEDTAVYYCAASYVPSYAPGRYYYWGQGTQVTVSS", "polyreactivity (PSR sort gate)": "high polyreactivity"},
      {"sequence": "QVQLEESGGGLLQAGGSLRLSCAASGRTLGGYTMGWYRPAPGKERELVSAITTGGSTNYADSVKGRFTISRDNAKNTVYLQMNSLKPEDTAVYFCATELVFDKRYWYDYWGQGSQVTVSS", "polyreactivity (PSR sort gate)": "low polyreactivity"},
      {"sequence": "QVQLEESGGGLMQAGGNLRLSCAASGYISTHYDMDWYRQAPGRERELVARIDDGAITNYADSVKGRFTISRDNATNTVYLQMNSLKPEDTAVYYCAVYSGDDYYHDYWGQGTQVTVSS", "polyreactivity (PSR sort gate)": "low polyreactivity"},
      {"sequence": "QVQLEESGGGLVQAGASLRLICAASGFTFARNAMGWYRQAPGKERELVASITSGGSTNYADSVKGRFTISRDNAKNTVYLQMNSLKPEETAVYYCAAYQWIAPRRDYWGQGTQVTVSS", "polyreactivity (PSR sort gate)": "low polyreactivity"},
      {"sequence": "QVQLEESGGGLVQAGASLRLSCAASGNIFPRNAMGWYRQAPGKERELVAAISASGDNTYYADSVKGRFTISRDNAKNTVYLQMNSLKPEDTEVYYCAAATFYESIQPYESVAYDYWGQGTQVTVSS", "polyreactivity (PSR sort gate)": "low polyreactivity"},
      {"sequence": "QVQLEESGGGLVQAGGILRLSCAASGFTLVYYAMGSYRQAPGKERELVATISGNGGRTYYADSVKGRFTISRDNAKNTDNLQMNSLKPEDTAVYYCAALLYIGSVGYDYWGQGTQVTVSS", "polyreactivity (PSR sort gate)": "low polyreactivity"},
      {"sequence": "QVQLEESGGGLVQAGGRHRLSCAASGNIFTSYTMGWYRQAPGKERELVAAISGGGGSTYYADSVKGRFTISRDNAKNTVYLQMNSLKPEDTAVYYCNAGRWWRRGYGYWGQGTQVTVSS", "polyreactivity (PSR sort gate)": "high polyreactivity"},
      {"sequence": "QVQLEESGGGLVQAGGRLRLSCAASGITFGSYAMGWYRQAPGKERELVAAITRSDITNYADSVKGRFTISRDNAKNSVYLQMNRLNREDTAVYYCNKTPDRHRRYFGYGYWGHGTQVTVSS", "polyreactivity (PSR sort gate)": "low polyreactivity"},
      {"sequence": "QVQLEESGGGLVQAGGRLRLSCAASGSTFDPNTMGWYRQAPGKERELVATITSVDSTNYADSVKGRFTISRDNAKNTVYLQMNSLKPEDTAVYYCNAAYGGVFFYAYDYWGQGTQVTVSS", "polyreactivity (PSR sort gate)": "low polyreactivity"},
      {"sequence": "QVQLEESGGGLVQAGGRLRLSCDASGITLLLKAMGWYRQAPGKERELFAAISEGGGSTYYADSVKGRFTISRDNAKNTVYLQMNSLTPEDTAVYYCAADEYTPDYGQGYDYWGQGTQVTVSS", "polyreactivity (PSR sort gate)": "low polyreactivity"},
      {"sequence": "QVQLEESGGGLVQAGGSHRLSCAASGQIFRHYAMGWYRQAPGKEREFVAAITGSGGNTYYADSLKGRFTISRDNAKNTVYLQMNSLKPEDTAVYYCAVRAYPSYPRGVYAYYYWGQGTQVTVSS", "polyreactivity (PSR sort gate)": "high polyreactivity"},
      {"sequence": "QVQLEESGGGLVQAGGSHRLSCPASGRIFRANAMGWYRQAPGKERELLAAITRSGGSTYYADSVKGRFTISRDNAKNTVYLHMISLKPEDTAVYYWNARTRFDDGYDYWGQGTQVTVSS", "polyreactivity (PSR sort gate)": "high polyreactivity"},
      {"sequence": "QVQLEESGGGLVQAGGSLLLSCAASGLIFYHNAMGWYIQAPGKERELVAAITASGGSTYYADSVKGRFTISRDNANNTVYLQIISLKTEDTAVYYCAADGPLDSDLDYWRQGTQVTVSS", "polyreactivity (PSR sort gate)": "low polyreactivity"},
      {"sequence": "QVQLEESGGGLVQAGGSLPLICAASGRIFATYAMGWYRQAPGKARELVAAISGRGSSTYYADSVKVRFTISRDNAKNTVYLQMNSLKPEDTAVSYCAAVVRHSFGYDSWGQCTQVTVSS", "polyreactivity (PSR sort gate)": "high polyreactivity"},
      {"sequence": "QVQLEESGGGLVQAGGSLRFSCAASGSIMTRNAMGWYRQPTGKEMELVAAITGSGGRTYYADSVKGRFSISRDNAKKTFFLQMTSLIPEDTAVYYCATRYGREDYWGQGTQVNVSS", "polyreactivity (PSR sort gate)": "high polyreactivity"},
      {"sequence": "QVQLEESGGGLVQAGGSLRISCAASGRTIGPYAMGWYRQARGKERELVAAISGGGSTNYADSVKGRFTISRDNAKNSDYLQMNSLKPEDTAVYYCNTEYPISGEEEYWGQGTHVTVSS", "polyreactivity (PSR sort gate)": "low polyreactivity"},
      {"sequence": "QVQLEESGGGLVQAGGSLRISCAASGRTLRSYAMGWYRQAPGKERELVAAISWNGGDTYADSVKGRFTISRDNAKNTVYLQMNSLKPEDTAVYYCAASRWFSRYWYGIDKYNYWGQGTQVTVSS", "polyreactivity (PSR sort gate)": "high polyreactivity"},
      {"sequence": "QVQLEESGGGLVQAGGSLRISCAASGSTFWRYTMGWYRQEPGKERELVAAISWSGDGTYYADSVKGRFTISRDNAKNTVYLQMNSLKPEDTAVYYCAAEVYYANGYDYDYWGQGTQVTVSS", "polyreactivity (PSR sort gate)": "low polyreactivity"},
      {"sequence": "QVQLEESGGGLVQAGGSLRISCAAYGRTLRQYALGWYRQAPGKERELVAAISRGGSTTYADSVKGRFTISRDNAKNTVYLQMNSLKPEDTAVYYCAAVSSKGNRHEYDYWGQGTQVTVSS", "polyreactivity (PSR sort gate)": "low polyreactivity"},
      {"sequence": "QVQLEESGGGLVQAGGSLRLICAASGSIFYQYPMGWYRQAPGKERELVAGITWSGGSTYYADSVKGRFTISRDNAKNTVYLQMNSLKPEDTAVYYCAAQYFCYVYSYDYWGQGTQVTVSS", "polyreactivity (PSR sort gate)": "high polyreactivity"},
      {"sequence": "QVQLEESGGGLVQAGGSLRLSCAASALTIEYNAKGSYRQAPAKERELVATISWSDSTRYADSVKGRLTISRDNAKSTVYLQMNSLKPEYTAVYDSNADVYWAWWEFDYWGQGTQVTVSS", "polyreactivity (PSR sort gate)": "low polyreactivity"},
      {"sequence": "QVQLEESGGGLVQAGGSLRLSCAASGFIFSWYVMGWYRQAPGKERELVAAISQSGGDTYYADSVKGRFTISRDNAKNTVYLQMNSLKPEDTAVYYCAVGRVGRFYYWGQGTQVTVSS", "polyreactivity (PSR sort gate)": "high polyreactivity"},
      {"sequence": "QVQLEESGGGLVQAGGSLRLSCAASGFTFGVYPMGWYRQATGKEREFVADITYSGGSTYYADSVKGRFTISRDNAKNTVYLHMNSLKPEDTAVYYCAAGYVYTWYGEYVVGYDYWGQGTQVTVSS", "polyreactivity (PSR sort gate)": "high polyreactivity"},
      {"sequence": "QVQLEESGGGLVQAGGSLRLSCAASGFTFHPNAMGWYRQAPGKERELVAAIRYSTGRTYYADSVKGRFTISRDNAKNTVYLQMNSLKPEDTAVYYCAREALQYPGLKYNYWGQGTQVTVSS", "polyreactivity (PSR sort gate)": "low polyreactivity"},
      {"sequence": "QVQLEESGGGLVQAGGSLRLSCAASGFTFIRYAMGWYRQAPGTERELVAAIRGTGTSTYYADSVKGRFTISRDNAKNTVYLQMNSLKPEDTAVYYCNKVAGRSPYTRYDYWGQGTQVTVSS", "polyreactivity (PSR sort gate)": "low polyreactivity"},
      {"sequence": "QVQLEESGGGLVQAGGSLRLSCAASGFTFRKNAMGWYRQAPGKERELVAAISSGGGRTYYADSVKGRFTISRDNANNTVYLQMNSLKPEDTAVYYCAVSIGRYPYRYGYWGQGTQVTVSS", "polyreactivity (PSR sort gate)": "high polyreactivity"},
      {"sequence": "QVQLEESGGGLVQAGGSLRLSCAASGFTFTDYAMGWYRQAPGKERELVAVITYDSTYYADSVKGRFTISRDNAKNTVYLQMNSLKPEDTAVYYCAADSYDWGDFDYWGQGTQVTVSS", "polyreactivity (PSR sort gate)": "low polyreactivity"}
    ]}
  ]
}
